[ ]: non-standard residue; d: D form.
Key:
[1] = molecular target: integrin α5β1 (Homo sapiens, UniProt P05556+P08648); conditions: cited from earlier work
[2] = test system: retinal vasculogenesis; experiment: newborn mouse model of retinal angiogenesis; assay type: in vivo
Protocol: For the model, newborn mice were injected subcutaneously twice daily for four days starting from day 0 with the cyclic peptide RGDfV (SEQ ID NO 4) (also referred to as peptide 203) or the control peptide RADfV (SEQ ID NO 5). On postnatal day five, globes were removed and fixed in 4.0% paraformaldehyde (PFA) at room temperature.
To quantitate mouse retinal angiogenesis, the distance from the optic nerve head to the most distal point of a single vessel selected in each of six equal sectors around a twelve hour clock was measured. The mean distance was calculated and averaged with similar data obtained from an entire litter. To measure the total volume of retinal blood vessels, the entire specimen was scanned in 2.0 μm optical sections and stored digitally. The “seed” function in Bio-Rad's Lasersharp software was then used to threshold and count cubic pixels in each section. A macro was written to sum the volume of all sections and determine the value for all vascular structures.

[3] = molecular target: integrin αIIbβ3 (Homo sapiens, UniProt P05106+P08514); conditions: cited from earlier work
[4] = molecular target: integrin αvβ3 (Homo sapiens, UniProt P05106+P06756); conditions: cited from earlier work
Sequence of integrin αvβ3 (P06756 31-889 limits assumed): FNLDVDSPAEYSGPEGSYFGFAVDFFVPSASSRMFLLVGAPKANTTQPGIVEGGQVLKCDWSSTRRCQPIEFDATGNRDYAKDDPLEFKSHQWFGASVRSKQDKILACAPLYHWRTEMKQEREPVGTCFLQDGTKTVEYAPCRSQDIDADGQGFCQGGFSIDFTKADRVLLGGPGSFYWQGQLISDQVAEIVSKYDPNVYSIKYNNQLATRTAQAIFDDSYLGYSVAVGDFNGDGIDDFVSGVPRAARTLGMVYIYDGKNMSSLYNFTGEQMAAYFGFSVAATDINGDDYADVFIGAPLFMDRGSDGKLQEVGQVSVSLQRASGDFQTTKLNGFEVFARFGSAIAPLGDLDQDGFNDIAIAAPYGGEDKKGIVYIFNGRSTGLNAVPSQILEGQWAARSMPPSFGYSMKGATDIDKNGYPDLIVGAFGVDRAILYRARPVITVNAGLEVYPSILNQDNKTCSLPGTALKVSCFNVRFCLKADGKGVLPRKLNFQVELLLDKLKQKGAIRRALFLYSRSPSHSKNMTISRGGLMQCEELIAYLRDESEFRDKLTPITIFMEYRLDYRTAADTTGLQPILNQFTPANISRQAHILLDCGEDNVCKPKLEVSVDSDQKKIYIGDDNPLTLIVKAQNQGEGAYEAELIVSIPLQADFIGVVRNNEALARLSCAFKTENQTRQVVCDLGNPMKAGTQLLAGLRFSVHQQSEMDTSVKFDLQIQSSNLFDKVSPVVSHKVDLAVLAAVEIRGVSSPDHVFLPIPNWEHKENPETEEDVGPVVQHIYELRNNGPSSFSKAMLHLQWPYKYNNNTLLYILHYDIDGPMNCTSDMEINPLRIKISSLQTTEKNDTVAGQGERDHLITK
Sequence of integrin αvβ3 (P06756 891-1048 partner limits assumed): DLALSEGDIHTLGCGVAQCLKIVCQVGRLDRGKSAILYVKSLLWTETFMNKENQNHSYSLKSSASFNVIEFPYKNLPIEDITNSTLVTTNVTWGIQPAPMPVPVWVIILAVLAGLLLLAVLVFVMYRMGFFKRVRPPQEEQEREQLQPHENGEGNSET
Sequence of integrin αvβ3 (P05106 27-788): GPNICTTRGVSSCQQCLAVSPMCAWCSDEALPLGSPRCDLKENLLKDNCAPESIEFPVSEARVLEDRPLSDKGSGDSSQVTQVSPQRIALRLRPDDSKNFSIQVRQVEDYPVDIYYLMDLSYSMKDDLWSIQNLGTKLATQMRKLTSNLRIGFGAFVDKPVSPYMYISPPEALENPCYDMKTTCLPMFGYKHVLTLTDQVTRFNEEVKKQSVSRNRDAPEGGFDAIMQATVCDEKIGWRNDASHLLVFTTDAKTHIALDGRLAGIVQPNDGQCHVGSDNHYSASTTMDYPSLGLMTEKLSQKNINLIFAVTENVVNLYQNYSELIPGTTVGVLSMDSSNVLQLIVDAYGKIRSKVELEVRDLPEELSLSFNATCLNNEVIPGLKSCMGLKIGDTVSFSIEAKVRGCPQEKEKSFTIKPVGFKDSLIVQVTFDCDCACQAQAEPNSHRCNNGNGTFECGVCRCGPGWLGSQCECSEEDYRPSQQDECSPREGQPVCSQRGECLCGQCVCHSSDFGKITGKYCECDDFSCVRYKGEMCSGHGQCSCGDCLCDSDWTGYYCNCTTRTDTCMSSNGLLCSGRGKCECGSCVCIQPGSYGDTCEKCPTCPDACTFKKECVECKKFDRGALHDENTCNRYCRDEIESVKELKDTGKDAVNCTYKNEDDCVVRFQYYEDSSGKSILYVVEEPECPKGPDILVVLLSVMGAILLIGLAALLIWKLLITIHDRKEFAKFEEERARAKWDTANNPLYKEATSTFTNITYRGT

[5] = test system: CS-1 melanoma tumors; experiment: CS-1 melanoma tumor growth on chick embryo CAM, intravenous mAbs; assay type: in vivo; conditions: 100 to 300 μg mAb once intravenously; 7 days
Protocol: Angiogenesis is induced in the CAM assay system by direct apposition of a tumor fragment on the CAM. Preparation of the chick embryo CAM is identical to the procedure described above. Instead of a filter paper disk, a 50 milligram (mg) to 55 mg in weight fragment of one αvβ5-negative tumor resulting from growth of cell line suspensions described below, is placed on the CAM in an area originally devoid of blood vessels.
In one embodiment, hamster melanoma cells, CS-1, obtained from Dr. Caroline Damsky from University of California at San Francisco, were used in the CAM assay as described above for formation of melanoma tumors. Following the transfer of approximately a 50 mg CS-1 tumor fragment on a new 10 day chick embryo CAM, separate preparations received an intravenous injections of either 100 μg or 300 μg of P1F6 antibody, LM609 antibody or control CSAT (anti-β1) antibody. An additional control included a preparation that received no treatment. The results are discussed below in Example 6D.
Tumor-induced blood vessels prepared above were also treated with mAbs applied by intravenous injection. […] After this time period, the tumors were resected and analyzed by their weight to determine the effect of antibody exposure on tumor growth or suppression.

[6] = test system: angiogenesis induced by TGF-α; experiment: chick CAM assay, TGF-α-induced angiogenesis; assay type: in vivo; conditions: TGF-α 1.0 μg/ml; antibodies 75 μg per embryo, calphostin C 100 nM
Protocol: (§1) The above growth factors (cytokines), including bFGF and VEGF, were separately applied at a concentration of 1.0 μg/ml to the 10 day old CAM model as previously described. PMA was used at a concentration of 20 ng/ml.
(§2) After 24 hours after growth factor treatment, the antibodies, LM609 and P1F6, or the protein kinase C (PKC) inhibitor, calphostin C, were separately provided to the CAM model, either by a single intravascular dose as described above or by topical administration as described below in the next example. For intravascular injections over the next 3 day consecutive period, the antibodies were used at a concentration of 75 μg per embryo and the calphostin C was at a dosage of 100 nM.
(§3) On day 13, filter discs and associated CAM tissue were dissected and analyzed for angiogenesis with a stereo microscope. Angiogenesis was scored in a double blind manner by analyzing the number and extent of branching of the blood vessels within the area of the discs. The scores ranged from low (1) to high (4). The angiogenesis index was determined by subtracting a background score of 1 from all data. Experiments were repeated 2–4 times with 5–6 embryos per condition.

[7] = test system: TNF-α mediated angiogenesis; experiment: chick CAM assay, TNF-α-induced angiogenesis; assay type: in vivo; conditions: TNF-α 1.0 μg/ml; antibodies 75 μg per embryo, calphostin C 100 nM
Protocol: as §1, §2, §3

[8] = test system: angiogenesis induced by PMA; experiment: chick CAM assay, PMA-induced angiogenesis; assay type: in vivo; conditions: PMA 20 ng/ml; antibodies 75 μg per embryo, calphostin C 100 nM
Protocol: as §1, §2, §3

Sequence of integrin α5β1 (P08648 42-894 limits assumed): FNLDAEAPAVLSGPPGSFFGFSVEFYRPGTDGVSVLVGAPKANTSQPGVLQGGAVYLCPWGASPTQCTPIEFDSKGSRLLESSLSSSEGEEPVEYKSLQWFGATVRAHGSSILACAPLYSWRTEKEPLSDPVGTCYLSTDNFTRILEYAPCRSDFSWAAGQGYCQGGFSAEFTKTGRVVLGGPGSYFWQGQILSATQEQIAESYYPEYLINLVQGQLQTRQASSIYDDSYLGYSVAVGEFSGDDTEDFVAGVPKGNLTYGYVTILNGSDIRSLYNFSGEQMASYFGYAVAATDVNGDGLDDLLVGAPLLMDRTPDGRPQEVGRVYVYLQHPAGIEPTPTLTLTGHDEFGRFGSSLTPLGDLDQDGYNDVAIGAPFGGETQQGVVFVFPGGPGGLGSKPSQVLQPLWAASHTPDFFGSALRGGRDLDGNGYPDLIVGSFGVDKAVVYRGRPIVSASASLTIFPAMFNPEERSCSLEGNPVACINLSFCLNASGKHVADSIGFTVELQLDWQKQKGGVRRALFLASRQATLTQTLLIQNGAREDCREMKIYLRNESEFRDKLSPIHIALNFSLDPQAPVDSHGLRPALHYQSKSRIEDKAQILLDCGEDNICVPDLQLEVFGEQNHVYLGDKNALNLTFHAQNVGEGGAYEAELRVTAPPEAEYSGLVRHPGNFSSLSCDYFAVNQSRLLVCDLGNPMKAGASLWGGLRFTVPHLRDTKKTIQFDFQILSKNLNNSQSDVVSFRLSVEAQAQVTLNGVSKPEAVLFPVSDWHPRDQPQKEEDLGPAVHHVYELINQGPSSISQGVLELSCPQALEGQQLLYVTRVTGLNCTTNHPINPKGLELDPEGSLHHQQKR
Sequence of integrin α5β1 (P08648 895-1049 partner limits assumed): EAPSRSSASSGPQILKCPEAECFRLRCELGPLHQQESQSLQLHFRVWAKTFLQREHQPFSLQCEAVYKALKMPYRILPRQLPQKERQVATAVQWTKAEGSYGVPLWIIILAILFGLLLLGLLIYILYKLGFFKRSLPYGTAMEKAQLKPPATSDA
Sequence of integrin α5β1 (P05556 21-798): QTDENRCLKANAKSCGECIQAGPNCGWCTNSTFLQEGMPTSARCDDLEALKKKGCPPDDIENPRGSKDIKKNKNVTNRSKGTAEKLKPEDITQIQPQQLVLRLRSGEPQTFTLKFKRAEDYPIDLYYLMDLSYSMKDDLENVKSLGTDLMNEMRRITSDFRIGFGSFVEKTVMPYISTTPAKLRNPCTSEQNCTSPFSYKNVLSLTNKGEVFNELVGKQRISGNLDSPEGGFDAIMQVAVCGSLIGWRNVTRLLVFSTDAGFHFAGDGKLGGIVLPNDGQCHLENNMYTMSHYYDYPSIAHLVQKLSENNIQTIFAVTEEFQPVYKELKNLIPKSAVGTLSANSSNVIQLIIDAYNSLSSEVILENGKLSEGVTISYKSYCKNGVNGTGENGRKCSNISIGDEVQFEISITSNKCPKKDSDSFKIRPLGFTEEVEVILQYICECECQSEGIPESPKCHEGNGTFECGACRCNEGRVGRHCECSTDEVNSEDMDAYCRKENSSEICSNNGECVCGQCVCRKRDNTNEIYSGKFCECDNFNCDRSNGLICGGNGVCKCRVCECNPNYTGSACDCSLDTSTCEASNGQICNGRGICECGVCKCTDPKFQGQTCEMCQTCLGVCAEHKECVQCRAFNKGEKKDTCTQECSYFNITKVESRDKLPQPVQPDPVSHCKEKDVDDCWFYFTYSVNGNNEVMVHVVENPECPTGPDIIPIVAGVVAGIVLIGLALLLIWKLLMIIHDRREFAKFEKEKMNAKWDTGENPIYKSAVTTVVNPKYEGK

| Molecule | inhibition of binding of fibrinogen to integrin α5β1 [1] | mean volume of retinal vessels ([2]; postnatal day five) | difference in vessel growth between untreated five-day old mice and same aged treated mice ([2]; two dimensions) | inhibition of binding of fibrinogen to integrin αIIbβ3 [3] | inhibition of binding of fibrinogen to integrin αvβ3 [4] | inhibition of CS-1 tumor growth [5] | effect on CAM angiogenesis induced by TGF-α (angiogenesis index) [6] | effect on CAM angiogenesis in response to TNF-α (angiogenesis index) [7] | effect on CAM angiogenesis induced by PMA (angiogenesis index) [8] |
| --- | --- | --- | --- | --- | --- | --- | --- | --- | --- |
| cyclo(Arg-Ala-Asp-D-Phe-Val) (cyclo(RAD[dF]V); SMILES CC(C)[C@@H]1NC(=O)[C@@H](Cc2ccccc2)NC(=O)[C@H](CC(=O)O)NC(=O)[C@H](C)NC(=O)[C@H](CCCNC(=N)N)NC1=O) [peptide 69601, reference compound] | not inhibit binding | 15.7×10^6 μm^3 | no statistical difference | not inhibit binding | inhibiting binding | – | – | – | – |
| LM609: mouse monoclonal antibody, anti-αvβ3 (antibody, V domains shown) VH: EVQLEESGGGLVKPGGSLKLSCAASGFAFSSYDMSWVRQIPEKRLEWVAKVSSGGGSTYYLDTVQGRFTISRDNAKNTLYLQMSSLNSEDTAMYYCARHNYGSFAYWGQGTLVTVSA VL: ELVMTQTPATLSVTPGDSVSLSCRASQSISNHLHWYQQKSHESPRLLIKYASQSISGIPSRFSGSGSGTDFTLSINSVETEDFGMYFCQQSNSWPHTFGGGTKLEIKRA | – | – | – | – | – | also inhibited tumor growth, however, less effective than that with P1F6 | failed to do so | blocked angiogenesis | failed to do so |

— patent publication US7053041B1, “Methods and compositions useful for inhibition of αvβ5mediated angiogenesis” (The Scripps Research Institute, priority 1996, dated 2006)
